Biological target: CD36 (human (endogenous in primary monocytes)) (UniProt P16671)
UniProt P16671, sequence (P16671 whole entry): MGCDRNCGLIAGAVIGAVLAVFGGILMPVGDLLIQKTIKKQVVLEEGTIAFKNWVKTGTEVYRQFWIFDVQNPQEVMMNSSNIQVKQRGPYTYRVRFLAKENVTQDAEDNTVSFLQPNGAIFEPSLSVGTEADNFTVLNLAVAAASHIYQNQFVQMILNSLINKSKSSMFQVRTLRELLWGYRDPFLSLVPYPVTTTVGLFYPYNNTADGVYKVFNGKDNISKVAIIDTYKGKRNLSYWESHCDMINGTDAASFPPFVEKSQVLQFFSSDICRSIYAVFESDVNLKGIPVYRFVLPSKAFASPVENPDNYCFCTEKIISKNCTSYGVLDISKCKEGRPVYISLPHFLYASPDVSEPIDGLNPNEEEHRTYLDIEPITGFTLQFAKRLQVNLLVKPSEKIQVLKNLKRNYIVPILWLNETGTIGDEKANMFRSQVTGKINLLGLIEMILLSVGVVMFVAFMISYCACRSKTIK

Substance: bovine lactoferrin (natural protein)
- CD36 surface expression on Mo (flow cytometry, percentage of CD36 positive cells) after bLF 100 μg/mL for 18 h (% CD36 positive cells): < 30
